# Results: patent publication US20200283507A1 (US Dept. of Health and Human Services, published 2020)
# T1: Hu/NoV/GI.1/Norwalk/1968/U.S. VLP (human norovirus GI.1, UniProt Q83884 1-530 (Norovirus (strain entry), limits assumed))
# T1 construct: mature; full-length VP1 (ORF2) assembled as virus-like particle in baculovirus/Sf9; also called Norwalk VLP; NV
# T1 sequence (looked up): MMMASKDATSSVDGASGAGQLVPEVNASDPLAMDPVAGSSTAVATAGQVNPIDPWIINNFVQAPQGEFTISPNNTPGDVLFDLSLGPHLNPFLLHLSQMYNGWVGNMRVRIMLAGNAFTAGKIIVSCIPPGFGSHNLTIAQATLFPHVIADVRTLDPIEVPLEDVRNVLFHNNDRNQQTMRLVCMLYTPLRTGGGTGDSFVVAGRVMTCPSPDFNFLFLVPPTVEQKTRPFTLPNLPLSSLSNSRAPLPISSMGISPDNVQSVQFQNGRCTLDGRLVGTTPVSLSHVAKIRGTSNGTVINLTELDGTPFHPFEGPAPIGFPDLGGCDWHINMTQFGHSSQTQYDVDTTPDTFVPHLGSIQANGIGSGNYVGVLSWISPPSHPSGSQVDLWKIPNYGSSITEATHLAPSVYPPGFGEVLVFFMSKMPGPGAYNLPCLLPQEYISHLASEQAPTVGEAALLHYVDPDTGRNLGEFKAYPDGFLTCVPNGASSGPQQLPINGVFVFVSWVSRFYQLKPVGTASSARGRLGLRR
# B1: VHH 11.2 (VHH)
# VHH: DVQLQASGGGLVQAGGSLRLSCAASTSRFSSYAMGWSRQAPGKQRELVASISSSGLTTNYADSVKGRFTISRDNAKNTVYLQMNSLKPEDTAVYYCKADGRRYSLNEYWGQGTQVTVSS
# notes: llama VHH, Norwalk library; pHEN6, C-terminal His6 tag; also called VHH 11.1
# B2: VHH 2.1 (VHH)
# VHH: QVQLQESGGGLVQAGGSLRLSCAASGLTFSSYAMGWFHQAPGKEREFVAAINWSGRDTYYADSVKGRFTISRDNRKNTVYLQMNSLKPEDTAVYYCAAAEFFSSGDPLPGMDYWGKGTLVTVSS
# notes: llama VHH, MD2004 library; pHEN6, C-terminal His6 tag; also called clone 2.1
# B3: VHH 3.2 (VHH)
# VHH: QVQLQESGGGLVQPGGSLRLSCAASESTPSINTMGWYRQAPGKERELVATITSGGMTNYADSVKGRFTISRDNGKNTVYLQMNSLEPGDTAVYYCNLKRRDLQARFGGYWGQGTQVTVSS
# notes: llama VHH, MD2004 library; pHEN6, C-terminal His6 tag; also called clone 3.2
# B4: VHH 16 (VHH)
# VHH: QVKLQQSGGGLVQPGGSLRLTCAASGFPFSTYAIRWVRRPPGKGLEWVSTIHPDFTTNYADSVSRRFTISRDNAKNTVYLQMNSLKPEDTAVYYCSRGVSGERGQGTQVTVSS
# notes: MD2004 library, subtractive biopanning; His6 tag; also called 16.1; clone 16
# B5: VHH 8.1 (VHH)
# VHH: QVKLQESGGGLVQAGGSLRLSCAASGFTFATYAMAWYRQAPGKQRELVASISNFGSTAYGDSVKGRFTISRDNAKNTVYLEMNSLKSEDTAVYYCKRVRDVIGRPELWGQGTQVTVSS
# notes: llama VHH, Norwalk library; pHEN6, C-terminal His6 tag
# B6: VHH 1 (VHH)
# VHH: QVQLQQSGGGLVQAGGSLRLSCAASGLAFSSYAITWLRQAPGTEREFVALISGSGSSTYYADSVKGRFTISRNNAKNTVYLQMNSLKPEDTAVYYCTASEFLLHPPPPNQKYDYWGQGTQVTVSS
# notes: llama VHH, MD2004 (GII.4) library; pHEN6, C-terminal His6 tag; also called 1.1; clone 1
# B7: VHH 9.8 (VHH)
# VHH: QVKLQQSGGGLVQAGGSLRLSCAASGTFSRYAMGWFRQAPGKEREFVAAINWTGGSTYYADSVKGRFTISGDNAKNTVYLQMNSLKPGDTAVYYCAAEVHPGDYGLTYMQSQYEYDYWGQGTQVTVSS
# notes: llama VHH, Norwalk library; His6 tag
# B8: VHH 14.5 (VHH)
# VHH: DVQLQASGGGLVQAGGSLRLSCVASARTFSSYAMGWFRQAPGKEREFVAAISWSGASTDYADSVKGRFTISRDNAKKTVYLQMNTLKPEDTAVYYCAAHHITPTGSYYYSEPLPVDMVYDYWGQGTQVTVSS
# notes: as for B5
# B9: VHH 12.2 (VHH)
# VHH: DVQLQASGGGLVQAGGSLRLSCAASGSTISSYAMAWYRQAPGKRRELVAHISSGGSTNYADSVKGRFTISRDNAKNTVYLQMNSLKPEDTAVYYCNIYYGGDYYYTGVKPNPWGQGTQVTVSS
# notes: as for B5
# Assays:
# [1] = target: T2, Hu/NoV/GI.1/P7-587/2007/Stromstad/Sweden VLP (human norovirus GI.1); test: VLP ELISA
# T2 construct: mature; baculovirus VLP; VP2 may be present; also called Norovirus 2007
# [2] = target: T3, Hu/NoV/GII.4/RockvilleD1/2012/U.S. VLP (human norovirus GII.4); test: VLP ELISA
# T3 construct: mature; baculovirus VLP; VP2 may be present
# [3] = target: T4, Hu/NoV/GII.4/MD145-12/1997/U.S. VLP (human norovirus GII.4); test: VLP ELISA
# T4 construct: mature; baculovirus VLP; VP2 may be present
# [4] = target: T5, Hu/NoV/GII.4/HS-191/2001/U.S. VLP (human norovirus GII.4); test: VLP ELISA
# T5 construct: mature; baculovirus VLP; VP2 may be present
# [5] = target: T6, Hu/NoV/GII.4/MD2004/2004/U.S. VLP (human norovirus GII.4); test: VLP ELISA
# T6 construct: mature; baculovirus VLP; VP2 may be present; also called MD2004 VLP
# [6] = target: T4, Hu/NoV/GII.4/MD145-12/1997/U.S. VLP; test: blockade ELISA: VLP binding to saliva Ly+
# Experimental: (§1) For this assay saliva positive for Ly antigen collected from a secretor individual was used. Saliva was boiled (95° C.) for 10 minutes immediately after collection, centrifuged for 5 minutes at 13000×g and the supernatants stored at −20° C. until used. ELISA 96 well U bottom polyvinyl plates Dynatech (Nunc, Thermo, EEUU) were coated with 100 μl/well of a 1/400 saliva dilution in 50 μM carbonate-bicarbonate buffer, pH 9.6. The plate was incubated overnight at 37° C. in a wet atmosphere. In parallel, serial two-fold dilutions of VHH starting from 8 ug/ml were mixed with 1.5 ug/ml of NoV VLP Norwalk and MD145 and incubated for 1h at 37° C. After 6 washes and a blocking step with 5% dry milk/0.05% Tween₂₀-PBS, 50 ul of each VHH-VLP mixture was transferred to the reaction plate, in duplicate. The assay was developed using a specific polyclonal antiserum made in guinea pig (1:10,000) followed by a peroxidase labeled anti-guinea pig IgG (1:2,000) and ABTS/H₂O₂ as substrate chromogen (KPL), 100 μl per well. Absorbance at 405 nm was measured. Mean % control binding, EC50 and criteria for determination of a blockade VHH were calculated as described above.
# [7] = target: T7, Hu/NoV/GII.4/CHDC4871/1977/U.S. VLP (human norovirus GII.4); test: VLP ELISA
# T7 construct: mature; baculovirus VLP; VP2 may be present
# [8] = target: T8, Hu/GII.6/Bethesda/2012/U.S. VLP (human norovirus GII.6); test: VLP ELISA
# T8 construct: mature; baculovirus VLP; VP2 may be present
# [9] = target: T4, Hu/NoV/GII.4/MD145-12/1997/U.S. VLP; test: blockade ELISA: VLP binding to synthetic HBGA H3
# [10] = target: T4, Hu/NoV/GII.4/MD145-12/1997/U.S. VLP; test: cell-based or functional assay
# [11] = target: T6, Hu/NoV/GII.4/MD2004/2004/U.S. VLP; test: cell-based or functional assay
# [12] = target: T6, Hu/NoV/GII.4/MD2004/2004/U.S. VLP; test: blockade ELISA: VLP binding to PGM type III
# Experimental: (§2) Pig Gastric Mucin Type III (PGM) (Sigma Chemicals) was used as a substrate for NoV VLP antibody-blockade assay as previously described. Briefly, PGM was resuspended in PBS at 5 mg/ml and coated onto 96 well U bottom polyvinyl plates Dynatech (Nunc, Thermo, USA) at 10 μg/ml in PBS for 4 hours. Plates were then blocked ON at 4° C. in 5% dry milk in 0.05% Tween₂₀-PBS. […] One hundred μl of VLPs-VHH mix were transferred to the PGM coated plates and incubated for 1 hour. Bound VLPs were detected by specific hyperimmune sera made in guinea pig, followed by anti-guinea pig IgG-HRP (KLP). ABTS/H₂O₂ was used as chromogen/substrate solution. All incubations were performed at room temperature and absorbance at 405 nm was measured. Mean % control binding, EC50 and criteria for determination of a blockade VHH were calculated as described above.
# [13] = target: T1, Hu/NoV/GI.1/Norwalk/1968/U.S. VLP; test: VLP ELISA
# [14] = target: T2, Hu/NoV/GI.1/P7-587/2007/Stromstad/Sweden …; test: cell-based or functional assay
# [15] = target: T1, Hu/NoV/GI.1/Norwalk/1968/U.S. VLP; test: blockade ELISA: VLP binding to saliva Ly+
# Experimental: as §1
# [16] = target: T1, Hu/NoV/GI.1/Norwalk/1968/U.S. VLP; test: blockade ELISA: VLP binding to PGM type III
# Experimental: as §2
# [17] = target: T1, Hu/NoV/GI.1/Norwalk/1968/U.S. VLP; test: cell-based or functional assay
Binder,minimum concentration of VHH able to recognize 100 ng of VLP [1],minimum concentration of VHH able to recognize 100 ng of VLP [2],minimum concentration of VHH able to recognize 100 ng of VLP [3],minimum concentration of VHH able to recognize 100 ng of VLP [4],minimum concentration of VHH able to recognize 100 ng of VLP [5],EC50 [12],"HAI titer, 0 Rh- RBC [14]",minimum concentration of VHH able to recognize 100 ng of VLP [13],EC50 [16],other results
B1,1 ng/well,,,,,,,,,
B2,,0.25 ng/well,8 ng/well,0.5 ng/well,0.5 ng/well,,,,,
B3,,0.5 ng/well,1 ng/well,0.5 ng/well,2 ng/well,2.3 µg/mL,,,,"EC50 [6]: 0.917 µg/mL; minimum concentration of VHH able to recognize 100 ng of VLP [7]: 0.5 ng/well; minimum concentration of VHH able to recognize 100 ng of VLP [8]: 0.5 ng/well; EC50 [9]: 0.641 µg/mL; HAI titer, B Rh+ RBC [10]: 0.19 µg/mL; HAI titer, B Rh+ RBC [11]: 0.19 µg/mL"
B4,,,,,0.5 ng/well,0.767 µg/mL,,,,binding result [13]: no binding
B5,1 ng/well,,,,,,0.78 µg/mL,,,
B6,,0.25 ng/well,0.5 ng/well,1 ng/well,0.5 ng/well,0.341 µg/mL,,,,EC50 [6]: 2.01 µg/mL; minimum concentration of VHH able to recognize 100 ng of VLP [7]: 0.25 ng/well; EC50 [9]: 0.85 µg/mL
B7,,,,,,,,0.5 ng/well,1.14 µg/mL,EC50 [15]: 1.72 µg/mL
B8,0.5 ng/well,,,,,,0.05 µg/mL,0.5 ng/well,0.351 µg/mL,"EC50 [15]: 1.56 µg/mL; HAI titer, 0 Rh- RBC [17]: 0.78 µg/mL"
B9,1 ng/well,,,,,,0.8 µg/mL,1 ng/well,2.59 µg/mL,
